{"source": "paper PMC5472786", "key": {"[1]": {"target": "H2A-containing mono-nucleosome (recombinant Xenopus laevis histone octamer on 601 DNA with 70 bp of extranucleosomal DNA) (Xenopus laevis) (UniProt P06897)", "experiment": "native gel or EMSA; 70N0 nucleosomes with photoreactive DNA bound with saturating amounts of INO80 at 30 °C; extent of binding assessed on 4% native polyacrylamide gels"}, "[2]": {"test_system": "INO80 complex (Ino80-FLAG) (Saccharomyces cerevisiae S288C)", "experiment": "EMSA", "details": "saturating INO80, 30 C, EMSA: 10 mM Na-HEPES pH 7.8, 4 mM MgCl2, 60 mM NaCl, 0.2 mM EGTA, 0.04 mM EDTA, 8% glycerol, 0.1 ug/uL BSA, 30 min, footprinting and crosslinking at 30 C"}, "[3]": {"test_system": "Ino80 (catalytic subunit within INO80 complex) (Saccharomyces cerevisiae S288C)", "experiment": "site-specific DNA photocrosslinking", "details": "10 A tether, in INO80 complex, AB-dUMP (10 A) or ABG2-dUMP (18.6 A) at nt -58 from dyad, EMSA: 10 mM Na-HEPES pH 7.8, 4 mM MgCl2, 60 mM NaCl, 0.2 mM EGTA, 0.04 mM EDTA, 8% glycerol, 0.1 ug/uL BSA, 30 C, 30 min, footprinting and crosslinking at 30 C"}}, "data": [{"substance": "INO80 complex (from UniProt P53115 1-1489; P80428 1-489; P40154 1-320)", "values": [{"measurement": "percent of nucleosomes bound", "setting": "[1]", "result": "> 90", "unit": "%"}]}, {"substance": "70N0 nucleosome, photoreactive dUMP at nt -33/-30", "values": [{"measurement": "binding signal (% nucleosomes bound)", "setting": "[2]; photoreactive dUMP at nt -30 to -33 from dyad", "result": "> 90"}]}, {"substance": "70N0 nucleosome, photoreactive dUMP at nt -58", "values": [{"measurement": "binding signal (% nucleosomes bound)", "setting": "[2]; AB-dUMP (10 A) or ABG2-dUMP (18.6 A) at nt -58 from dyad", "result": "> 90"}, {"measurement": "binding signal (fold crosslinking vs no nucleotide)", "setting": "[3]; ADP", "result": 4}, {"measurement": "binding signal (fold crosslinking vs no nucleotide)", "setting": "[3]; ATPgS", "result": 4}]}]}
